Assays:
[1] = target: nuclear pore complex of nup84Δ cells (S. cerevisiae (endogenous)) (UniProt P35729); experiment: co-fractionation with isolated NPCs (QFPD, quantitative fluorescent protein detection); glucose-grown (repressing) cells; nuclei isolated on sucrose/PVP-40 gradients, lysed with DNase I, NPC fraction floated on sucrose/Nycodenz gradient; GFP fluorescence of the fractions read on a Typhoon imager; values relative to wild type; also done in gcr1Δ and gcr1Δ nup84Δ strains
[2] = target: nuclear pore complex of nup120Δ cells (S. cerevisiae (endogenous)) (UniProt P52891); experiment: as above
Sequence of nuclear pore complex of nup120Δ cells (S. cerevisiae (endogenous)) (P52891 whole entry, looked up, stated change not applied, one chain of several): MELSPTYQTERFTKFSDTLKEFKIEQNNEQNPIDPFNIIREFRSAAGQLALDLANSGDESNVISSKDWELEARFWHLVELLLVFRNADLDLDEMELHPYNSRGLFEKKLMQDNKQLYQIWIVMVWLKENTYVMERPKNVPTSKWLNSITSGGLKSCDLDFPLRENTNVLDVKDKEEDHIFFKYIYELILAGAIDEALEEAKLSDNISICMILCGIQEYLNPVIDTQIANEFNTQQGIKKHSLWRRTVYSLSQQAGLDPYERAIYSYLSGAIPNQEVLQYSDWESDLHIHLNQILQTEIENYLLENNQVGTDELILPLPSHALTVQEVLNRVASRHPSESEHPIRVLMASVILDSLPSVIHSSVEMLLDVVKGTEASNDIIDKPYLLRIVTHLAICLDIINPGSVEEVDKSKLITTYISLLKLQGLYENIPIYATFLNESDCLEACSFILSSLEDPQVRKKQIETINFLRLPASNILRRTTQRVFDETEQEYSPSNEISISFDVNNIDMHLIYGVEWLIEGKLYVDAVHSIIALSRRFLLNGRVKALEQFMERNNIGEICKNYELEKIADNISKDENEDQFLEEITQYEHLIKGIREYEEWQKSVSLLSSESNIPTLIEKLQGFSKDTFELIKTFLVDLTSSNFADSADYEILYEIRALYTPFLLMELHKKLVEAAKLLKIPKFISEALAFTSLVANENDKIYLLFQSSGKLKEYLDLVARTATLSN

[3] = target: nuclear pore complex of nup133Δ cells (S. cerevisiae (endogenous)) (UniProt P52891); experiment: as above
Sequence of nuclear pore complex of nup133Δ cells (S. cerevisiae (endogenous)) (P52891 whole entry, looked up, stated change not applied, the tested form may be a part, one chain of several): as the sequence (P52891 whole entry, looked up, stated change not applied, one chain of several) above

[4] = target: T1, Mig1-GFP fusion protein (S. cerevisiae, UniProt P27705 1-504); experiment: co-IP; anti-GFP antibody added to crude lysate of glucose-grown cells, protein A sepharose; eluate blotted and probed with anti-lexA antibody (anti-GFP as control); conditions: partners not purified
T1 construct: Mig1, glucose-regulated repressor of S. cerevisiae; GFP tag integrated at the MIG1 locus; Called a fully functional fusion; also called GFP-tagged Mig1; source: S. cerevisiae, Mig1-GFP strain from the Yeast GFP Clone collection (Invitrogen), integrated GFP tag; in crude lysate or cell fractions
T1 sequence (P27705 whole entry, the tested form may be a part): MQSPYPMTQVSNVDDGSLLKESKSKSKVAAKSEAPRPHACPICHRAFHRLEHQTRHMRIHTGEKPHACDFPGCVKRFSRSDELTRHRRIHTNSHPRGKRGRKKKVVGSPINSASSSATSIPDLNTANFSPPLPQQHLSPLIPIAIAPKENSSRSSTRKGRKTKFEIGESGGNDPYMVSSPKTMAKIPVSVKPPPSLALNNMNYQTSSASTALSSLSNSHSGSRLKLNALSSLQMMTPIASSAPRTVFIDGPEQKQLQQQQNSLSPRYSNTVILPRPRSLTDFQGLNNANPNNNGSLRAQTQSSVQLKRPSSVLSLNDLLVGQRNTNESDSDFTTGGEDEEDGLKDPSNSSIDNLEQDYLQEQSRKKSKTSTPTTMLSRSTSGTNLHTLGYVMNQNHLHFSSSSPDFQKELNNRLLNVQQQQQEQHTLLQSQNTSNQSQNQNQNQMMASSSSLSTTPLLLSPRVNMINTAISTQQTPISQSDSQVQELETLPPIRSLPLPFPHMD

Sequence of Mig1-GFP fusion protein (from UniProt P27705 1-504) (natural protein) (P27705 whole entry, the tested form may be a part): as above
Sequence of nuclear pore complex of nup84Δ cells (S. cerevisiae (endogenous)) (P35729 whole entry, looked up, stated change not applied, one chain of several): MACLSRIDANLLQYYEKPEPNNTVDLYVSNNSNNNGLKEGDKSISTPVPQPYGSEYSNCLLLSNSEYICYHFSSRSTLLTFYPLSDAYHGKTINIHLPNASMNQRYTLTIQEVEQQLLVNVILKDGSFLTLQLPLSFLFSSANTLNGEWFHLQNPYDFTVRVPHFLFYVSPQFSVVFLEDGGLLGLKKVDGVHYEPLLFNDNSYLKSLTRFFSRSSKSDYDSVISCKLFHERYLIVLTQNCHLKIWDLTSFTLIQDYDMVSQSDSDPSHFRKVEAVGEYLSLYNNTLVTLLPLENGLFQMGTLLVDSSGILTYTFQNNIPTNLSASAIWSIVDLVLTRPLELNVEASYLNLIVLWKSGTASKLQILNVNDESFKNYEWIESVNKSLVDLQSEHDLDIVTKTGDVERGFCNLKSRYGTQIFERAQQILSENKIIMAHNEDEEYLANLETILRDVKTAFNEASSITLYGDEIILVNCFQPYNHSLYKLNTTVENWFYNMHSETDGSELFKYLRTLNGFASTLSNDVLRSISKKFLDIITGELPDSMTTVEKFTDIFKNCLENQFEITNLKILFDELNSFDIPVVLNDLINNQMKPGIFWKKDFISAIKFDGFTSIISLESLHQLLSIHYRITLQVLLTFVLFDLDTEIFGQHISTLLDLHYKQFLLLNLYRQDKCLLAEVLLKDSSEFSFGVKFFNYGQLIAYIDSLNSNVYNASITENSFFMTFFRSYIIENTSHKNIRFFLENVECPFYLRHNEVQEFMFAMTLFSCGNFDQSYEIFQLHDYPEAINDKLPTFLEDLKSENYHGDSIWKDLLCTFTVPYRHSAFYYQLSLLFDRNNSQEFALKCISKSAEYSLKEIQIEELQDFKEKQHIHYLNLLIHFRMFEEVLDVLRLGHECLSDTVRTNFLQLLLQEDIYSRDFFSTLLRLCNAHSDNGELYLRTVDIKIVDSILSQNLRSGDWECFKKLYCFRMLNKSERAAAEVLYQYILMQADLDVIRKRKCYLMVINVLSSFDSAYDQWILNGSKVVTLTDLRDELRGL

perinuclear Mig1 relative to wild type (relative to wild type (1.00)) [1] | perinuclear Mig1 relative to wild type (relative to wild type (1.00)) [2] | perinuclear Mig1 relative to wild type (relative to wild type (1.00)) [3] | fold reduction in co-immunoprecipitation relative to Nup84-lexA [4] | Molecule
1.3 | 0.43 | 0.03 |  | Mig1-GFP fusion protein (from UniProt P27705 1-504) (natural protein)
 |  |  | > 2 fold | Nup53-lexA (natural protein, S. cerevisiae, UniProt Q03790 1-475, looked up, Nup53, nucleoporin, S. cerevisiae; source: S. cerevisiae Mig1-GFP strain, in crude lysate) MADLQKQENSSRFTNVSVIAPESQGQHEQQKQQEQLEQQKQPTGLLKGLNGFPSAPQPLFMEDPPSTVSGELNDNPAWFNNPRKRAIPNSIIKRSNGQSLSPVRSDSADVPAFSNSNGFNNVTFGSKKDPRILKNVSPNDNNSANNNAHSSDLGTVVFDSNEAPPKTSLADWQKEDGIFSSKTDNIEDPNLSSNITFDGKPTATPSPFRPLEKTSRILNFFDKNTKTTPNTASSEASAGSKEGASTNWDDHAIIIFGYPETIANSIILHFANFGEILEDFRVIKDFKKLNSKNMSKSPSLTAQKYPIYTGDGWVKLTYKSELSKSRALQENGIIMNGTLIGCVSYSPAALKQLASLKKSEEIINNKTSSQTSLSSKDLSNYRKTEGIFEKAKAKAVTSKVRNAEFKVSKNSTSFKNPRRLEIKDGRSLFLRNRGKIHSGVLSSIESDLKKREQASKSKKSWLNRLNNWLFGWNDL

— article PMC3215702, “The Nuclear Pore Complex Mediates Binding of the Mig1 Repressor to Target Promoters” (PLoS ONE, 2011)
